Legend:
Assay in all cases: cell-based or functional assay
[1] = target: human PERV-A receptor PHuR-A1 (human) (UniProt Q9HAB3)
[2] = target: human PERV-A receptor PHuR-A2 (human) (UniProt Q9NWF4)
[3] = target: baboon PERV-A receptor PBaR-A1 (baboon) (UniProt Q863Y8)
Chain of UniProt Q863Y8 (Q863Y8 whole entry): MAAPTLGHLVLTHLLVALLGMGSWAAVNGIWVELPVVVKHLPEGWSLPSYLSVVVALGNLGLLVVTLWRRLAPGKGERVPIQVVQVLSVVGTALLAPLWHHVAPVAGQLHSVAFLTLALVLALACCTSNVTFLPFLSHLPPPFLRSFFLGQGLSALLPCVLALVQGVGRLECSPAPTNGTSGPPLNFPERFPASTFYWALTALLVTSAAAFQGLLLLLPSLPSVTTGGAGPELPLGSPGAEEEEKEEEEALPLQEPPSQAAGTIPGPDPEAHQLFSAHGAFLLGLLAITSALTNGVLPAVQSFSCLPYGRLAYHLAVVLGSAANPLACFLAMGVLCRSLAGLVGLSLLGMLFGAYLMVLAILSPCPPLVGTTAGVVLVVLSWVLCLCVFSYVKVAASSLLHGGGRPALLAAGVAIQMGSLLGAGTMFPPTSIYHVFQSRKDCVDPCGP

Chain of UniProt Q9NWF4 (Q9NWF4 whole entry Q70R/V296M): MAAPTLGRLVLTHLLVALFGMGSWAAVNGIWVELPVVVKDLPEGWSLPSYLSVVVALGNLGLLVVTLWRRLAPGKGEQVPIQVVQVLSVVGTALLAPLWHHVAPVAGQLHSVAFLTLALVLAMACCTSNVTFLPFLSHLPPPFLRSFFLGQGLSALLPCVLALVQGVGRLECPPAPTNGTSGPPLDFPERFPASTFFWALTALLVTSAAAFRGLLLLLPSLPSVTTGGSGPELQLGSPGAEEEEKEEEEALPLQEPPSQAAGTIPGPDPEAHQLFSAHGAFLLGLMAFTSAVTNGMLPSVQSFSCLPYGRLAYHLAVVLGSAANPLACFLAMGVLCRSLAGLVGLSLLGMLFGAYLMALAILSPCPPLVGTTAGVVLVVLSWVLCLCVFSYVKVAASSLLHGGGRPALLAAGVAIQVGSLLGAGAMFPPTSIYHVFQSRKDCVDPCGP
Chain of UniProt Q9HAB3 (Q9HAB3 whole entry G341S): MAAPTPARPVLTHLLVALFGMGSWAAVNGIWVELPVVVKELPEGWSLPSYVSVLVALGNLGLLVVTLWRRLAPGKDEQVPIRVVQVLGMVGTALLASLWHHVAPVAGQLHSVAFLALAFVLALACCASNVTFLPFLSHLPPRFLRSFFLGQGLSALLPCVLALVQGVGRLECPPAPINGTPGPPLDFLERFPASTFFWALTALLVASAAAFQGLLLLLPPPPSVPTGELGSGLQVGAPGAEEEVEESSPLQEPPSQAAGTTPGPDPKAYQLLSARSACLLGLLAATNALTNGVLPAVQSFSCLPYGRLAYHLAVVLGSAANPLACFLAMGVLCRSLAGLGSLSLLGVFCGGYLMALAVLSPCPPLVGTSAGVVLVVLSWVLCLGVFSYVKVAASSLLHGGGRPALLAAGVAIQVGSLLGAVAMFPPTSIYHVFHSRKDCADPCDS

| Substance | Approximate LacZ pseudotype titer IU/ml [1] [IU/ml] | Approximate LacZ pseudotype titer IU/ml [2] [IU/ml] | Approximate LacZ pseudotype titer IU/ml [3] [IU/ml] |
| --- | --- | --- | --- |
| TelCeB PERV-A18 LacZ pseudotype (PERV-A envelope) | 6 | 1000 | – |
| PERV-A 14/220 envelope (ENV) protein, carried on replication competent recombinant PERV-A/PERV-C virus particles | 4000 | 20000 | 6000 |
